# Experiment: yeast display, Sf9 membrane polyspecificity reagent, FACS + sequencing; frameworks hold sequencing errors
# Method in brief: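 Genes from sorted yeast were amplified by colony PCR, read by MiSeq 2 × 250 sequencing and filtered on CDR length. These cells carried a synthetic nanobody library in Saccharomyces cerevisiae BJ5465 and were sorted by FACS into low and high (top ~1%) gates on anti-HA and streptavidin fluorescence. Polyreactivity is labelled according to the gate of origin.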
row,Sequence,polyreactivity (PSR sort gate)
1,QVQLVESGGCLLQAGGSLSLSCAASGSTSPANTMGWYRQAPGKEREFVAGISRRGGRTYYADSVKGRFTISRDTAKNTVYLQMNSLKPEDTAVYYSATALIVRGPSRYEYWGHGTQVTVSS,high polyreactivity
2,QVQLVESGGCLVKAGGSLRLSCAASGSIFGHYAMGWYRQAPGKERELVASIDSGGRTNYADSVKGRFTISLDNAKNTVYLQMISLKPEDTGVYYCNTTSVKTRGYGYWGQGSQVTVSS,low polyreactivity
3,QVQLVESGGCLVKAGGSLRLSSAASGSTFYYYAMGWYRQAPGKERELVAAITVNGGSTYYADSVKGRFTISRDNANNTVYLQMNSLKPGVTAVYYCAADDTYWVYPYTYSTYEYWGQGNQVTVSS,low polyreactivity
4,QVQLVESGGCLVQAGASLRLSCAASGSISKSYAMGWYRQAPGKEREFVAAISWRGGSTYADSVKGRFTISRDNAKNTVYLQMNSLKPEDTAVYYCAATNYGTFWGGQSERYDYWGQGSQVTVSS,low polyreactivity
5,QVQLVESGGCLVQAGGSHRLSCAASGLTFPKYAMGWYRQAPGKERELVARISYSGASTYYADSVKGRFTISRDNAKNTVYLHMNSLKPEDTAVYYCYARIYRVFYVHFAPYYYWGQGTQVTVSS,high polyreactivity
6,QVQLVESGGCLVQAGGSLRLICAASGNTFYVYAMGWYRQAPGKERELVAAITWSGGSTNYADSVKGRYTISRDNAKNTVYLQMNSLKPEDSAVYYCKADYWTFSPYDYWGQGTQVTVSS,low polyreactivity
7,QVQLVESGGCLVQAGGSLRLICAASGSIFDYNAMGWYRQAPGKERELVADITLSDDSTYYADSVKGRFTISRDNAKNTVYLQKNSLKPEDTAVYYCAADIKYYWYYYYWAYAYDYWGQGTQVTVSS,high polyreactivity
8,QVQLVESGGCLVQAGGSLRLICAASVSIFYYYAMGWYRQAPGKERELVATIRSSDGSTYYADSVKGRFTISRDNAKNTVYLQMYSLKPEDTAVYYCAHGYFRYDYWGQGTQVSVSS,low polyreactivity
9,QVQLVESGGCLVQAGGSLRLRCAASGPNFPGYTKGWYRHAPRKAREFVAAISYSGGSTYADSVKGRFTISRDNAKNTVYLQMNSLKPEDTSVYYCAVFLQHWLDMYYWGQGTQVNVSS,low polyreactivity
10,QVQLVESGGCLVQAGGSLRLSCAASGFIFRYNAMGWYRQAPGKERELVAAISWSGTTYYADSVKGRFTISRDNAKNTVYLQMNSLKPEDTAVFYCAAGRLFYGYRDFDYWGQGTQVTVSS,low polyreactivity
11,QVQLVESGGCLVQAGGSLRLSCAASGFTFSDNSMGWYRQAHGKERELVATISQSSGSTSYADSLKGRFTISRDNAKNTVYLQMNSLKPEDTAVYYCAKRRLFYWGLGTQVTVSS,low polyreactivity
12,QVQLVESGGCLVQAGGSLRLSCAASGFTFTTYAMGWYRQAPGKEREFVAALTKRGGRTYYADSVKGRFTISRDNAKITVYLQMNSLKPEDTAVYYCNKVVHSFPFPYRYDMDYWGQGTQVTVSS,high polyreactivity
13,QVQLVESGGCLVQAGGSLRLSCAASGFTFVRNAMGWYRQAPGKDRELVAAISGSGGRTYYADSVKGRFTISRDNAKNTVYLQMNSVKPEDTAVYYCNTASAYEYEYWGQGSQVTVSS,high polyreactivity
14,QVQLVESGGCLVQAGGSLRLSCAASGFTLTGNAMGWYRQAPGKERELVADISNSGGTTNYADSVKGRFTISRDNAKNTVYLQMNSLKPDDSAVYYCAADVSYRNIGLEYWGQGTQVTVSS,high polyreactivity
15,QVQLVESGGCLVQAGGSLRLSCAASGGIFGKYAMGWYRQAPGKESELVAAITWNGVSTYYADSVKGRFTISRDNAKNTVYLQMNSLKPEDTAVYYCAKASLPYRPDSTPDRRYDYWGQGTQVTVSS,high polyreactivity
16,QVQLVESGGCLVQAGGSLRLSCAASGGIFSYNAMGWYRQAPGKERELVAAISYSGGNTYYADSVKGRFTISRDNAKNTVYLQMNSLKPEDTAVYYCAATGYYNWYTSGYWGQGTQVTVSS,high polyreactivity
17,QVQLVESGGCLVQAGGSLRLSCAASGHIFTFYAMGWYRQAPGKERELVATIRWSGGSTYYADSVKGRFTISRDNAKNTVYLQMNSLKPEDTAVYYCAATYYPSSYVQRLDYWGQGTQVTVSS,low polyreactivity
18,QVQLVESGGCLVQAGGSLRLSCAASGIIFQQYAMGWYRQAPGKARELVAAITYSGDGTYYADSVKGRFTISRDNAKNTVYLQMNSLKPEDTAVYDCAAYPRDPYKEYDYWGQGTQVTVSS,low polyreactivity
19,QVQLVESGGCLVQAGGSLRLSCAASGIIFTYYAMGWSRQAPGKESELVARISSSGGRTYYADSVKGRVTISRDNGKNTVYLQMNSLNPEDTAVYYCAAAIVSYGRNDYWGQGTQVTVSS,high polyreactivity
20,QVQLVESGGCLVQAGGSLRLSCAASGITFRRYTMGWYRQAPGKERELVATISLSDGNTYYADSVKGRFTISRDNAKNSVYLQMNSLKPEDTAVYYCNADSTTQVYDYWGQGTQVTVSS,low polyreactivity
21,QVQLVESGGCLVQAGGSLRLSCAASGLIFRKYARGWSRQAPGKERELVAAISVSGGSTYYADSVKGRFTISRDNAKNTVYLQMNSLKPEDTAVYYCAATDFGRRGGSFYYWGQGTQVTVSS,high polyreactivity
22,QVQLVESGGCLVQAGGSLRLSCAASGLNFSKNVKGWYIQAPGKERELVAAISQRGGSTYYADSVKGRFTISRDYAKNTVYLQMNSLKPEDTAVYYCAADTTVSHEDYWGQGTQVTVSS,low polyreactivity
23,QVQLVESGGCLVQAGGSLRLSCAASGLTIFVNAMGWYRQAPGKERELVATISGGGSTYYADSVKGRFTISRDNAKNTVYLQMNSLKPEDTAVYYCNGGGYGLRGDYWGQGTQVTVSS,low polyreactivity
24,QVQLVESGGCLVQAGGSLRLSCAASGRIFVTYAMGWYRQAPGNERELVAAITSRGGRTYYADSVKGRFTISRDYAKNTVYLQMNSLKPEDTAVYYCAASPGPGARYYYWCQGTQVTVSS,high polyreactivity
25,QVQLVESGGCLVQAGGSLRLSCAASGRIIDFYTLGWYRQAPGKERELVAGINGSGASTYYADSVKGRFTISRDNAKNTVYLQMNSLKPEDTAVYYCAKDPGYYYDYDYWGQGTQVTVSS,low polyreactivity
26,QVQLVESGGCLVQAGGSLRLSCAASGRISGFNAMGWYRQAPGKERELVAANSYRGGSTYADSVKGRFTISRVNAKNTVYLQMNSLKPEDTAVYYCAAQSYWTFHTYYYWGQGTQVTVSS,low polyreactivity
27,QVQLVESGGCLVQAGGSLRLSCAASGRNIAYNAMGWSRQAPGKERELVASISSGGSTFYADSVKGRFTISRDNAKNTVYLQMNSLKPEDTAVYYCAKGGYWGQGTQVSVSS,high polyreactivity
28,QVQLVESGGCLVQAGGSLRLSCAASGRTFRRYAMGWYRQAPGKERELVASITWRGGRTYYADSVKGRFTISRDNAKNTVYLQMNSLKPEDTAVYYCAAEDYQLPGYRRTHVEKMDYWGQGTQVTVSS,low polyreactivity
29,QVQLVESGGCLVQAGGSLRLSCAASGRTFSPNAMGWYRQAPGKERELVAAISWISGGRTYYADSVKGRFTISRDNAKNTVYLQMNSLKPEDTAVYYCAAEYYYTYGYWGQGTQVTVSS,high polyreactivity
30,QVQLVESGGCLVQAGGSLRLSCAASGRTFYTNGMGWYRQAPGKEREFVAGITYRGGGTYYADSVKGRFTISRDNAQNTVYLQMNSLKPEDTAVYYCAARYYRDYRWYTYAYDYWGQGTQVTVSS,high polyreactivity
